Target: T1, His-p53 (UniProt P04637 1-393)
T1 construct: p53; also called Purified p53; source: purified
Test: pull-down; GST-TRIM26 fragments on beads, incubated with His-p53 or His-MDM2 at RT for 40 min; bound protein detected by Western blot with His antibody
Details: both partners purified

T1 sequence (P04637 whole entry): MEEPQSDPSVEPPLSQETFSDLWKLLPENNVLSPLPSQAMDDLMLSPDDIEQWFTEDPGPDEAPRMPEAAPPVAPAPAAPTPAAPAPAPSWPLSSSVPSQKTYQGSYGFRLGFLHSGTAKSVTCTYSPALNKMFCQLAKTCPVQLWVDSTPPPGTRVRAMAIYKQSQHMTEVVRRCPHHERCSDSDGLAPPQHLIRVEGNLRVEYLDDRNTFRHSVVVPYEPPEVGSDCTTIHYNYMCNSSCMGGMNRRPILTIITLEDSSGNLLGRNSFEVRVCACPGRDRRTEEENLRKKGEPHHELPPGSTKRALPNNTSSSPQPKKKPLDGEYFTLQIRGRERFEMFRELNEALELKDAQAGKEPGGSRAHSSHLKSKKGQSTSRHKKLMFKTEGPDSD

B1: GST-TRIM26 C-terminal PRYSPRY domain (aa301-539) (domain or fragment, UniProt Q12899 301-539, looked up)
chain: QGKLLRDLEYKTVSVTLDPQSASGYLQLSEDWKCVTYTSLYKSAYLHPQQFDCEPGVLGSKGFTWGKVYWEVEVEREGWSEDEEEGDEEEEGEEEEEEEEAGYGDGYDDWETDEDEESLGDEEEEEEEEEEEVLESCMVGVARDSVKRKGDLSLRPEDGVWALRLSSSGIWANTSPEAELFPALRPRRVGIALDYEGGTVTFTNAESQELIYTFTATFTRRLVPFLWLKWPGTRLLLRP
notes: also called the C-terminal domain of TRIM26; source: purified GST-fusion protein on beads
B1: binds.

Source: publication PMC12162846, “Tripartite motif-containing protein 26 promotes colorectal cancer growth by inactivating p53” (Cell Death and Differentiation, 2025)
